Assay results reported in patent publication US20240067748A1 (NONA BIOSCIENCES SUZHOU, published 2024).
Where a chain is given by its changes, count along the chain named. Each block holds one binder with its values, some of them ahead of it.

Legend:
human Trop2 on cells = target: T1, human Trop2 on cells (human, UniProt P09758 27-323); assay: flow cytometry on 293T-human Trop2 cells
T1 construct: whole, on cells; also called hTrop2; 293T-human Trop2 cells
T1 sequence (looked up): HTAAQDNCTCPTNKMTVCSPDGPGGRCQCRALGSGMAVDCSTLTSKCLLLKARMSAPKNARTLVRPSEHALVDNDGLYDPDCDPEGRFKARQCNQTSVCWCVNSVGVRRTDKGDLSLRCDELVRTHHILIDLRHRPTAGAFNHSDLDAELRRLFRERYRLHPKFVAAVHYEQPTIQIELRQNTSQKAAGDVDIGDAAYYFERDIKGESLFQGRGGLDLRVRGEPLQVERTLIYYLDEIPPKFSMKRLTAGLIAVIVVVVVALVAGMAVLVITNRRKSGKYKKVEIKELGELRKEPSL
Method: The cell density was determined, and the cells were resuspended to 1×10⁶ cells/mL in PBS. 100 μL of cell suspension was taken from each well and added to a 96 well V-bottom plate. The 96-well V-bottom plate was centrifuged at 1000 rpm for 5 min and washed once with PBS+0.5% BSA (VWR, #0332-100G). […] After 1 h, the cells were washed twice with PBS+0.5% BSA. The cells were incubated with 100 μL of Alexa Fluor 488 goat anti-human IgG (Life technologies, 1:1000, #A-11013) at 4° C. for 1 h in the dark, and washed twice with PBS+0.5% BSA. The cells were resuspended in 200 μL of PBS+0.5% BSA. The fluorescence intensity of the cells was analyzed using a FACS verse flow cytometer. All procedures were performed on ice.

[1] = target: T2, monkey Trop2 protein (Sino Biological, #90893-C08H) (monkey, UniProt A0A2K5UE71 27-274); assay: BLI, Octet RED96, AHC sensor
T2 construct: bought protein; also called monkey Trop2 protein antigen (His tag)
T2 sequence: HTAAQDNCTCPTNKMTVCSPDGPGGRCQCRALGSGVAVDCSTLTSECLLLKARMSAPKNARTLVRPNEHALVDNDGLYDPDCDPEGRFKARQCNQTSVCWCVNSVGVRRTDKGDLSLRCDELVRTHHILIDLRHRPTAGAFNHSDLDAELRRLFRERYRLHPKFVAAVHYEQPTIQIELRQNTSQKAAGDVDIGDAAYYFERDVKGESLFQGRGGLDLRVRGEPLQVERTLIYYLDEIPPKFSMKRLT
Method: (§1) Specifically, a human TROP2 protein (Sino Biological, #10428-H08H) or a monkey Trop2 protein (Sino Biological, #90893-C08H) was diluted to 200 nM with a PBS buffer (pH 7.4) containing 0.1% (w/w) BSA and 0.02% (v/v) tween 20, and incubated with the AHC sensor respectively. 40 nM Trop2 antibody was incubated at 30° C. for 3 min with the AHC sensor loaded with the human Trop2 protein or monkey Trop2 protein respectively. The reaction mixture was incubated at 30° C. for another 5 min in a PBS buffer (pH 7.4) containing 0.1% (v/w) BSA and 0.02% (v/v) Tween 20. The association and dissociation signals between the Trop2 antibody and the human Trop2 protein or monkey Trop2 protein were recorded by Octet Red 96 in real time. The affinity and the association and dissociation constants were determined by Octet using software.

[2] = target: T3, human TROP2 protein (Sino Biological, #10428-H08H) (human, UniProt P09758 27-274); assay: BLI, Octet RED96, AHC sensor
T3 construct: bought protein; also called human Trop2 protein antigen (His tag); not shown: His tag
T3 sequence (looked up): T2 sequence with V36M, E46K, N67S, V204I
Method: as §1

[3] = target: T2, monkey Trop2 protein (Sino Biological, …); assay: BLI, Octet RED96; ratio against KD for human Trop2 protein
Method: as §1

EC50 (human Trop2 on cells): 2.4 nM
Maximum (MFI) (human Trop2 on cells): 8950 MFI
Top % (human Trop2 on cells): 138%
Kd [1]: 2.04 nM
Response [1]: 0.173
koff [1]: 0.000162 s⁻¹
kon [1]: 79400 M⁻¹ s⁻¹
Kd [2]: 2.41 nM
Response [2]: 0.194
koff [2]: 0.000262 s⁻¹
kon [2]: 109000 M⁻¹ s⁻¹
KD (monkey)/KD (human) [3]: 0.85
B1: PR001164 (antibody, human IgG1, kappa, V domains shown)
VH: QVQLQQSGPGLVKPSQTLSLTCAISGDSVSSTSAVWNWIRQSPSRGLEWLGRTCYRSKWYNDYAVSVKSRITITPDTSKNQFSLRLNPVTPEDTAVYYCARGDFRFDSWGQGTLVTVSS
VL: DIQLTQSPSFLSASVGDRVTITCRASQGISSYLAWYQQKPGKAPKLLIYAASTLQSGVPSRFSGSGSGTEFTLTISSLQPEDFATYYCQQVKIYPLTFGGGTKVEIKR
notes: fully human IgG1/kappa; also called antibody No. (25)

EC50 (human Trop2 on cells): 0.669 nM
Maximum (MFI) (human Trop2 on cells): 6780 MFI
Top % (human Trop2 on cells): 105%
Kd [1]: 2.45 nM
Response [1]: 0.311
koff [1]: 0.000145 s⁻¹
kon [1]: 59300 M⁻¹ s⁻¹
Kd [2]: 1.59 nM
Response [2]: 0.333
koff [2]: 0.00014 s⁻¹
kon [2]: 88000 M⁻¹ s⁻¹
KD (monkey)/KD (human) [3]: 1.54
B2: PR001168 (antibody, human IgG1, kappa, V domains shown)
VH: QVQLVESGGGVVQPGRSLRLSCATSGFIFSSYGMHWVRQAPGKGLDWVAVIWYDGSNKYYADSVKGRFTISRDNSKNTLYLQMNSLRVEDTAVYYCARETSSWYVGYLQHWGQGTLVTVSS
VL: EIVMTQSPATLSVSPGERVSLSCRASQSVNGNVAWYQQKPGQAPRLLIYAASTRATGIPARFSGSGSGTESTLTISSLQSEDCAVYYCQQYNNWPSTFGPGTKLEVTR
notes: fully human IgG1/kappa; also called antibody No. (28)
